B1: Azoarcus group I ribozyme (parent)
chain: GUGCCUUGCGCCGGGAAACCACGCAAGGGAUGGUGUCAAAUUCGGCGAAACCUAAGCGCCCGCCCGGGCGUAUGGCAACGCCGAGCCAAGCUUCGGCGCCUGCGCCGAUGAAGGUGUAGAGACUAGACGGCACCCACCUAAGGCAAACGCUAUGGUGAAGGCAUAGUCCAGGGAGUGGCGAAAGUCACACAAACCGG

Variants of: B1
Experiment: reverse-splicing fitness (ratio to wild type); higher = more active; in vitro selection; Mg2+ level not given
Outline: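 An in vitro group I ribozyme library with randomized positions was T7-transcribed and gel-purified. In triplicate, 10 pmol RNA in EPPS pH 7.5 was reacted with 50 pmoles of a 30-nt RNA substrate for 1 h at 37 °C across several added MgCl2 levels (1–48 mM), then stopped with EDTA. Products were reverse transcribed from a substrate-complementary primer, PCR-amplified and sequenced (HiSeq 4000). Fitness is a variant's read proportion after selection over that before, normalised to wild type.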

Compared with C82U A120G A145U C150G C169G U176A, C82U A120G A145U C150U C169G is higher in reverse-splicing fitness: 0.00669 for the first, 0.0171 for the second.

First: C82U A120G A145U C150U C169U
Second: C82U A120G A145U C150U C169A
The reverse-splicing fitness of the first is higher: 0.0143 for the first, 0.014 for the second.

Compared with C82U A120G A145G C150U C169G U176G, C82U A120G A145G C150U C169G U176C is higher in reverse-splicing fitness: 0.00383 for the first, 0.0207 for the second.

First: C82U A120G A145G C150U C169G U176A
Second: C82U A120G A145C C169A U176G
The reverse-splicing fitness of the first is higher: 0.0132 for the first, 0.00332 for the second.

First: C82U A120G A145C C169A U176C
Second: C82U A120G A145U C150U C169A U176A
The reverse-splicing fitness of the first is lower: 0.00742 for the first, 0.0106 for the second.

First: C82U A120G A145U C150U C169A U176C
Second: C82U A120G A145U C150U C169A U176G
The reverse-splicing fitness of the first is higher: 0.0085 for the first, 0.00326 for the second.

Compared with C82U A120G A145G C150A C169A U176C, C82U A120G A145G C150A C169A U176G is lower in reverse-splicing fitness: 0.0191 for the first, 0.00457 for the second.

Compared with C82U A120G A145G C150A C169A U176A, C82U A120G A145G C169U U176A is higher in reverse-splicing fitness: 0.018 for the first, 0.0237 for the second.

Compared with C82U A120G A145G C169U U176G, C82U A120G A145G C169U U176C is higher in reverse-splicing fitness: 0.00378 for the first, 0.0187 for the second.

First: C82U A120G A145C U176C
Second: C82U A120G A145C U176G
The reverse-splicing fitness of the first is higher: 0.0121 for the first, 0.00356 for the second.

First: C82U A120G A145C U176A
Second: C82U A120G A145G C150A U176C
The reverse-splicing fitness of the first is lower: 0.0109 for the first, 0.0182 for the second.

First: C82U A120G A145G C150A U176G
Second: C82U A120G A145G C150A U176A
The reverse-splicing fitness of the first is lower: 0.00584 for the first, 0.0092 for the second.

Going from C82U A120G A145U C169G U176C to C82U A120G A145U C169G U176A, the reverse-splicing fitness falls from 0.0138 to 0.0111.

Compared with C82U A120G A145U C169G U176G, C82U A120G A145C C169U is higher in reverse-splicing fitness: 0.00314 for the first, 0.0172 for the second.

First: C82U A120G A145C C169G
Second: C82U A120G A145G C150U C169U
The reverse-splicing fitness of the first is higher: 0.0218 for the first, 0.0183 for the second.

First: C82U A120G A145G C150U C169A
Second: C82U A120G A145G C150U C169G
The reverse-splicing fitness of the first is lower: 0.0162 for the first, 0.0218 for the second.

First: C82U A120G A145U C169A U176A
Second: C82U A120G A145U C169A U176G
The reverse-splicing fitness of the first is higher: 0.00994 for the first, 0.00294 for the second.

Going from C82U A120G A145U C169A U176C to C82U A120G C150A U176C, the reverse-splicing fitness rises from 0.0105 to 0.0166.

First: C82U A120G C150A U176A
Second: C82U A120G C150A U176G
The reverse-splicing fitness of the first is higher: 0.0116 for the first, 0.00583 for the second.

Compared with C82U A120G A145G C150U C169A U176G, C82U A120G A145G C150U C169A U176C is higher in reverse-splicing fitness: 0.00486 for the first, 0.0154 for the second.

Compared with C82U A120G A145G C150U C169A U176A, C82U A120G A145U C150G C169A U176C is lower in reverse-splicing fitness: 0.0153 for the first, 0.00949 for the second.

Compared with C82U A120G A145U C150G C169A U176G, C82U A120G A145U C150G C169A U176A is higher in reverse-splicing fitness: 0.00411 for the first, 0.00927 for the second.

Compared with C82U A120G A145G C150U, C82U A120G A145G C150A is lower in reverse-splicing fitness: 0.0208 for the first, 0.00966 for the second.

Compared with C82U A120G A145G C150G, C82U A120G A145G C150G C169G U176A is higher in reverse-splicing fitness: 0.00813 for the first, 0.0089 for the second.

Going from C82U A120G A145G C150G C169G U176C to C82U A120G A145G C150G C169G U176G, the reverse-splicing fitness falls from 0.0112 to 0.00523.

Going from C82U A120G A145G to C82U A120G A145U, the reverse-splicing fitness falls from 0.0245 to 0.0237.

First: C82U A120G A145G C150A C169G U176C
Second: C82U A120G A145G C150A C169G U176A
The reverse-splicing fitness of the first is higher: 0.0255 for the first, 0.0157 for the second.

Compared with C82U A120G A145G C150A C169G U176G, C82U A120G A145U C150A C169A is higher in reverse-splicing fitness: 0.00413 for the first, 0.00815 for the second.

Going from C82U A120G A145U C150A C169U to C82U A120G A145U C150A C169G, the reverse-splicing fitness rises from 0.0072 to 0.0077.

Going from C82U A120G A145U C169A to C82U A120G A145U C169U, the reverse-splicing fitness rises from 0.017 to 0.0182.

Going from C82U A120G A145U C169G to C82U A120G A145C C169G U176G, the reverse-splicing fitness falls from 0.0232 to 0.00391.

First: C82U A120G A145C C169G U176A
Second: C82U A120G A145C C169G U176C
The reverse-splicing fitness of the first is higher: 0.0276 for the first, 0.0161 for the second.

First: C82U A120G C150G
Second: C82U A120G C150A
The reverse-splicing fitness of the first is lower: 0.00711 for the first, 0.00924 for the second.

First: C82U A120G C150G C169A U176G
Second: C82U A120G C150G C169A U176A
The reverse-splicing fitness of the first is lower: 0.00547 for the first, 0.00927 for the second.

Going from C82U A120G C150G C169A U176C to C82U A120G C150A C169G, the reverse-splicing fitness rises from 0.00979 to 0.0102.

Going from C82U A120G C150A C169A to C82U A120G C150A C169U, the reverse-splicing fitness falls from 0.0118 to 0.00872.

Compared with C82U A120G A145G C150G C169U, C82U A120G A145G C150G C169A is lower in reverse-splicing fitness: 0.0101 for the first, 0.00944 for the second.

Going from C82U A120G A145G C150G C169G to C82U A120G A145G C150G C169U U176A, the reverse-splicing fitness rises from 0.00862 to 0.0122.

First: C82U A120G A145G C150G C169U U176C
Second: C82U A120G A145G C150G C169U U176G
The reverse-splicing fitness of the first is higher: 0.0118 for the first, 0.00698 for the second.

Compared with C82U A120G A145U C150G C169U U176A, C82U A120G A145U C150G C169U U176G is lower in reverse-splicing fitness: 0.0132 for the first, 0.0036 for the second.

First: C82U A120G A145U C150G C169U U176C
Second: C82U A120G A145G C150U C169U U176A
The reverse-splicing fitness of the first is lower: 0.0108 for the first, 0.0207 for the second.

First: C82U A120G A145G C150U C169U U176G
Second: C82U A120G A145G C150U C169U U176C
The reverse-splicing fitness of the first is lower: 0.00441 for the first, 0.0164 for the second.
